For orientation: Km means the concentration of substrate that gives half-maximal velocity. A word on the kcat: it is the maximal rate divided by the concentration of active sites. Usually kcat/Km stands for the turnover number divided by the Michaelis constant.

Consider 8 molecules from paper PMC10520331, “Novel exported fusion enzymes with chorismate mutase and cyclohexadienyl dehydratase activity: Shikimate pathway enzymes teamed up in no man's land” (The Journal of Biological Chemistry, 2023).

Where a chain is given by its changes, count along the chain named. In names and notes the source's numbering stands.

Data set [1] concerns C=C(O[C@@H]1C=C(C(=O)O)C=C[C@H]1O)C(=O)O. In words: purified protein. Particulars: PBS pH 7.5, 30 °C, CM site, lowest substrate 2.5 μM (Km near or below this is less reliable).
Data set [2] relates to O=C(O)C(=O)CC1(C(=O)O)C=CC(O)C=C1. In words: purified protein. The settings on record: PBS pH 7.5, 30 °C, CDT site.
The test system of data set [3] is T1, O=C(O)C(=O)CC1(C(=O)O)C=CC(O)C=C1.
T1 construct: fusion enzyme, CM N-terminal to CDT; without signal peptide, C-terminal His-tag; E. coli KA29; monomer
As to the kind of experiment: discontinuous CDT assay, phenylpyruvate enolate A320. In kind it is biochemical, Steroidobacter cummioxidans. The settings on record: PBS pH 7.5, 30 °C, CDT site. The text has this: discontinuous CDT assay, phenylpyruvate enolate A320 on ∗ScCMCDT

Data set [4] has as its system T2, C=C(O[C@@H]1C=C(C(=O)O)C=C[C@H]1O)C(=O)O.
T2 construct: fusion enzyme, CM N-terminal to CDT; without signal peptide, C-terminal His-tag; E. coli KA29; monomer
As to the kind of experiment: discontinuous CM assay, phenylpyruvate enolate A320. The settings on record: PBS pH 7.5, 30 °C, CM site. It is filed as biochemical, Steroidobacter cummioxidans. The text has this: discontinuous CM assay, phenylpyruvate enolate A320 on ∗ScCMCDT

Substrate in data set [5]: C=C(O[C@@H]1C=C(C(=O)O)C=C[C@H]1O)C(=O)O
The data set is described as above. It is filed as biochemical, Janthinobacterium sp. HH01. The settings on record: PBS pH 7.5, 30 °C, lowest substrate 2.5 μM (Km near or below this is less reliable). An excerpt:
discontinuous CM assay, phenylpyruvate enolate […] on ∗JbCM

Substrate in data set [6]: C=C(O[C@@H]1C=C(C(=O)O)C=C[C@H]1O)C(=O)O
Described as above. The settings on record: PBS pH 7.5, 30 °C, CM site, lowest substrate 2.5 μM (Km near or below this is less reliable). In kind it is biochemical, Shewanella baltica. The text has this: discontinuous CM assay, phenylpyruvate enolate A320 on ∗SbCMCDT

Substrate in data set [7]: O=C(O)C(=O)CC1(C(=O)O)C=CC(O)C=C1
As to the kind of experiment: discontinuous CDT assay, phenylpyruvate enolate A320. It is filed as biochemical, Shewanella baltica. The settings on record: PBS pH 7.5, 30 °C, CDT site, lowest substrate 2.5 μM (Km near or below this is less reliable). The text has this:
discontinuous CDT assay, phenylpyruvate enolate A320 on ∗SbCMCDT

Substrate in data set [8]: O=C(O)C(=O)CC1(C(=O)O)C=CC(O)C=C1
The description is as above. In kind it is biochemical, Janthinobacterium sp. HH01. The settings on record: PBS pH 7.5, 30 °C, CDT site. An excerpt: discontinuous CDT assay, phenylpyruvate enolate A320 on ∗JbCDTCM

Substrate in data set [9]: C=C(O[C@@H]1C=C(C(=O)O)C=C[C@H]1O)C(=O)O
As to the kind of experiment: discontinuous CM assay, phenylpyruvate enolate A320. It is filed as biochemical, Janthinobacterium sp. HH01. Particulars: PBS pH 7.5, 30 °C, CM site, lowest substrate 2.5 μM (Km near or below this is less reliable). An excerpt: discontinuous CM assay, phenylpyruvate enolate A320 on ∗JbCDTCM

Setting [10] is: CM-site knock-out, lowest substrate 2.5 μM (Km near or below this is less reliable).

Take ∗DsCDTCM (Duganella sacchari): in data set [1], the Km was determined as 3.0 ± 0.8 µM, the kcat is 19.5 ± 0.2 s⁻¹ and the kcat/Km was determined as 6.8e+06 ± 1.9e+06 M⁻¹ s⁻¹. In data set [2], the Km amounted to 14.6 ± 3.1 µM, the kcat was 24.9 ± 2.0 s⁻¹ and the kcat/Km came out at 1.8e+06 ± 500000 M⁻¹ s⁻¹.

With ∗ScCMCDT (Steroidobacter cummioxidans), in data set [3], the Km is 16.6 ± 2.5 µM, the kcat stood at 32.0 ± 8.4 s⁻¹ and the kcat/Km turned out to be 1.9e+06 ± 200000 M⁻¹ s⁻¹. Moreover, in data set [4], the Km was found to be 6.3 ± 3.9 µM and the catalytic constant (kcat) turned out to be 6.8 ± 0.7 s⁻¹.

In the case of ∗MpCDTCM (Massilia phosphatilytica), in [1], the Km was 3.2 ± 0.0 µM, the turnover number (kcat) was 26.3 ± 1.4 s⁻¹ and the kcat/Km came out at 8.3e+06 ± 400000 M⁻¹ s⁻¹. In data set [2], the Km turned out to be 18.1 ± 1.7 µM, the kcat is 41.8 ± 3.5 s⁻¹ and the kcat/Km came to 2.3e+06 M⁻¹ s⁻¹.

B1: ∗JbCM (Janthinobacterium sp. HH01) (protein)
chain: GLEPLRLAIDQRLLLAQAVARAKWNVQAPIEDLGREAQVIQAAVKEGAALGLPKVWIETVFRAQIEASKTVQRELFAQWSAQQAGKFDDAPDLAKTIRPELDRLTTQLLRSMASNQTVLNDEARKADVARAMRALEARALSPQAATQALAPFF
notes: split-off CM domain of JbCDTCM, starts at Gly238; C-terminal His-tag; E. coli KA29
For the molecule B1, in data set [5], the Km came out at 2.2 ± 0.3 µM, the kcat was 16.4 ± 1.5 s⁻¹ and the kcat/Km came to 7.6e+06 ± 1.7e+06 M⁻¹ s⁻¹.

B2: ∗SbCMCDT (Shewanella baltica OS155) (protein)
chain: DTDENAELYANMNTRLSYMQQVALYKWQHQLPIEDLAREKIVLAQSVTAAESLGITSVAITDFFQVQIELAKKIQRQYHQQWREHGLPQTLQTKQNTKLSLDKIRPALTTLGQTIIEQIAEHQDQHDFSVFNLAIDTPLVSIEDKAVLFRSLSLIKPKVYLSTLDKIIAEKILYVGTTGDYEPFSYFEAGQIKGIDIDLANRLADSLGAQAVFLPTSWSNLITDLSSERFDIMMSGISKQLFRQRVGLQSDIYLEDGKTPISLCAKKERYDSLAKIDKPDTRMIVNKGGTNQRFVDANIKQAKITVHSSNVTIFQELIANRADVMITDRVEVQLQTKKHTELCSTMPNNLNYSAKAFLMGRDPIWKEYVDAWLELSIKDGSVSNIFNHYI
notes: fusion enzyme, CM N-terminal to CDT; without signal peptide, C-terminal His-tag; E. coli KA29
Take B2: in [6], the Km was determined as 3.2 ± 2.7 µM and the kcat turned out to be 6.8 ± 0.1 s⁻¹. Further, in data set [7], the Km amounted to 3.6 ± 1.1 µM, the kcat is 12.2 ± 2.8 s⁻¹ and the kcat/Km was 3.5e+06 ± 300000 M⁻¹ s⁻¹.

B3: ∗JbCDTCM (Janthinobacterium sp. HH01) (protein)
chain: DHRLDDITARGVLRVGTTGDYKPFSSRAGNDFVGLDIELAADLARTLGVPVQIVPTSWPTLMKDFGDGKFDIALGGVSITPERQKQGLFSVSYLRDGKTPITRCENSARFQTLAQIDQPGVRLVVNPGGTNERFARSQAPNAQLTVYPDNVTIFDQIVTGAADLMITDAIETRLQQRLRPQLCAVHPDTPFDFAEKAILLPRDVAFKAVVDKWLQQRIASGAVQRSVDRWLDFPWGLEPLRLAIDQRLLLAQAVARAKWNVQAPIEDLGREAQVIQAAVKEGAALGLPKVWIETVFRAQIEASKTVQRELFAQWSAQQAGKFDDAPDLAKTIRPELDRLTTQLLRSMASNQTVLNDEARKADVARAMRALEARALSPQAATQALAPFF
notes: fusion enzyme, CDT N-terminal to CM; without signal peptide, C-terminal His-tag; E. coli KA29; monomer
Regarding B3, in data set [8], the Km was determined as 7.3 ± 2.0 µM, the kcat is 13.0 ± 1.3 s⁻¹ and the kcat/Km is 1.8e+06 ± 300000 M⁻¹ s⁻¹. In data set [9], the Km was determined as 3.0 ± 0.1 µM, the kcat was determined as 17.1 ± 0.9 s⁻¹ and the kcat/Km was 5.7e+06 ± 100000 M⁻¹ s⁻¹.

B4: ∗JbCDTCM (Janthinobacterium sp. HH01; E200Q) (protein)
chain: B3 chain with E171Q
notes: as for B3
On to B4, for which, in data set [9] (CDT-site knock-out), the Km was 2.4 ± 1.3 µM, the kcat came out at 15.6 ± 0.4 s⁻¹ and the specificity constant (kcat/Km) is 7.9e+06 ± 4.5e+06 M⁻¹ s⁻¹.

B5: ∗JbCDTCM (Janthinobacterium sp. HH01; K287A) (protein)
chain: B3 chain with K258A
notes: as for B3
On to B5, for which, in data set [8] (setting [10]), the Km is 4.2 ± 0.4 µM, the kcat was 13.9 ± 0.3 s⁻¹ and the catalytic efficiency (kcat/Km) is 3.3e+06 ± 200000 M⁻¹ s⁻¹.
